“And” between values parts separate entries of the source, which are not always exact repeats. Equal entries are not always repeated.
B1: 抗H7N9全人源单克隆抗体5Q2 (antibody, V domains shown)
VH: QVQLVESGAEVKKPGASVKVSCKASGYIFTNYDINWVRQATGQGLEWMGWMSPDNGDTGFAQKFQGRVTMTRNTSITTAYMELSSLTSEDTAVYYCATGSADCNGGNCYSWFDPWGQGTLVTVSS
VL: SSELTQDPAVSVALGQTVRITCQGDRVRNYYASWYQQKPGQAPVLVIYGKSNRPSGIPDRFSGSSSGNTASLTITGAQAEDEADYYCSNRDTNGYHVLFGGGTKLTVLV

Assays:
[1] = biological target: H7N9病毒的HA蛋白(购自ACROBiosystems) (H7N9 influenza virus); experiment: ELISA, HA coated, negative control
[2] = biological target: H7N9病毒 A/Anhui/1/2013 的血凝素HA (on live virus) (influenza A virus A/Anhui/1/2013 (H7N9)); experiment: cell-based or functional assay
[3] = biological target: H7N9病毒的HA蛋白(购自ACROBiosystems) (H7N9 influenza virus); experiment: ELISA, HA coated, supernatant of 293F cells transfected with 5Q2 H and L genes

Molecule	450nm [1]	中和实验 (微量中和-ELISA, MDCK细胞) IC50 [2] [µg/mL]	450nm [3]
阴性对照 (ELISA, wells G, H)	0.0675 OD450 and 0.0554 OD450	–	–
B1	–	5.52	1.23 OD450 and 0.936 OD450 and 0.723 OD450

From CN111434684A
